Several values for one entry are separate records, joined by “and”; a condition that tells them apart may be missing. Equal entries are not always repeated.

The term IC50 denotes the concentration that inhibits the measured activity by half. A higher IC50 goes with weaker potency in that assay.

In test [1] the target is T1, human CCR2, endogenous on THP-1 cells / THP-1 cell membranes, fresh PBMC and whole blood cells (human, UniProt P41597 1-374).
T1 construct: whole, on cells; Native receptor; It was used on whole cells and as a THP-1 membrane preparation; The splice form is not specified for THP-1; also called CCR2b (on blood cells)
T1 sequence (P41597 whole entry, canonical isoform): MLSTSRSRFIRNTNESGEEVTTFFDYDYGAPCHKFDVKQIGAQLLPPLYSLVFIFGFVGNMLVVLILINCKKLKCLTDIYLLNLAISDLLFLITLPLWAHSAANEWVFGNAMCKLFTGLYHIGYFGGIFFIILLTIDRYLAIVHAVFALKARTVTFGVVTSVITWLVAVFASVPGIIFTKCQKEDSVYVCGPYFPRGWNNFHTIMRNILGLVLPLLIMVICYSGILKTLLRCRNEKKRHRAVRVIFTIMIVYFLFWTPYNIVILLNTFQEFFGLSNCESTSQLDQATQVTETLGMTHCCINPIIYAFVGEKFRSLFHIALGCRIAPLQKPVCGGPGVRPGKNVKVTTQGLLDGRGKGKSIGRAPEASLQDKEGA
The test is described as follows: inhibition of 0.1 nM [125I]MCP-1 binding to THP-1 cell membranes, filtration and scintillation counting. On the procedure:
The amount of bound tracer was determined by separation of free from bound by filtration and scintillation counting. The data was analyzed to determine the IC50 value by non-linear regression using a 4-parameter logistic equation with KaleidaGraph software.
(§1) Competition binding experiments were performed by including variable concentrations of unlabeled MCP-1, 1D9 antibody, or a negative control IgG2a. Nonspecific binding was determined following the addition of a 2500-fold excess of unlabeled MCP-1. Samples were incubated for 60 minutes at room temperature, and bound and free tracer were separated by filtration through 96-well GF/B filterplates presoaked in 0.3% polyethyleneimine.

Test [2] concerns the target T2, CCR5 expressed on L1/2 transfectants (UniProt P51681 1-352, limits assumed).
T2 construct: whole, on cells; also called CCR5 transfectants
The test is described as follows: flow cytometry on L1/2 transfectants, hybridoma supernatant. As for the experimental part: (§2) For the staining of cultured transfectant cell lines 0.5×10^6 cells in 50 μl were resuspended in PBS+1% FCS in a 96 well polystyrene V-bottom plate. 50 μl of primary antibody supernatants or HT medium (negative control) were added, and the samples were incubated at 4° C. for 30 min. 100 μl of PBS were added and the cells were pelleted by centrifugation and washed once with PBS. The pellet was resuspended in 100 μl PBS+1% FCS containing FITC-conjugated goat anti-mouse IgG antibody (a 1:250 dilution) and incubated for thirty minutes at 4° C. in the dark. The cells were washed twice with PBS, resuspended in PBS, and analyzed by flow cytrometry with a FacScan cytometer using the CellQuest software (Becton-Dickenson) Cells were fixed with PBS/1% formaldehyde if they were not to be analyzed the same day. Monoclonal antibodies 1D9 and 8G2 stain CCR2 transfectants but not CCR1 or CCR5 transfectants (FIG. 1).
(In flow cytometry, cells or beads pass a laser one at a time.)

Test [3] concerns the target T3, CCR1 expressed on L1/2 transfectants (UniProt P32246 1-355, limits assumed).
T3 construct: whole, on cells; also called CCR1 transfectants
T3 sequence (looked up): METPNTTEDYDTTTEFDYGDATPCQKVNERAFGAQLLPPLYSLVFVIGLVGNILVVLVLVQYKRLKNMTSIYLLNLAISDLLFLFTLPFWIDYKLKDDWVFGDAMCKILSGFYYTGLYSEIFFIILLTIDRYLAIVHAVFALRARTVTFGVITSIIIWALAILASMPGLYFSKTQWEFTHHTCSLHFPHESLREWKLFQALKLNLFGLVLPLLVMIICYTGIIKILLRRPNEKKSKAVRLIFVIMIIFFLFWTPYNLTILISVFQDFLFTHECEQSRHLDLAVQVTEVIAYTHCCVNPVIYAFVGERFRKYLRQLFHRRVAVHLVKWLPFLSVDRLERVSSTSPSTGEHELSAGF
Described as above. As for the experimental part: as §2

Test [4] has as its target T1, human CCR2, endogenous on THP-1 cells / …. The test is described as follows: inhibition of 0.1 nM [125I]MCP-1 binding to fresh PBMC, filtration and scintillation counting. On the procedure: The amount of bound tracer was determined by separation of free from bound by filtration and scintillation counting. The data was analyzed to determine the IC50 value as for FIG. 4.
as §1

T2 sequence (P51681 whole entry): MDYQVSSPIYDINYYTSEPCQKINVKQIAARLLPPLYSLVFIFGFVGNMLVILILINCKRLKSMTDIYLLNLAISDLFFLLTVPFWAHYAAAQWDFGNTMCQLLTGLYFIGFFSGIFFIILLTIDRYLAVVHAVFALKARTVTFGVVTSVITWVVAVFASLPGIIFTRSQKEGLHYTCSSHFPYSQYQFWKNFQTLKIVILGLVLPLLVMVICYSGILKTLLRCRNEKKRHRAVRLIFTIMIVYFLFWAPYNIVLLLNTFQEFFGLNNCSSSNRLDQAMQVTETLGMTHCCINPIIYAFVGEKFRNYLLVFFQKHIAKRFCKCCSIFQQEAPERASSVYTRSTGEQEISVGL

B1: murine monoclonal antibody LS132.1D9 (1D9) (antibody, V domains shown)
VH: EVQLVESGGGLVQPKGSLKLSCAASGFSFNAYAMNWVRQAPGKGLEWVARIRTKNNNYATYYADSVKDRYTISRDDSESMLFLQMNNLKTEDTAMYYCVTFYGNGVWGTGTTVTVSS
VL: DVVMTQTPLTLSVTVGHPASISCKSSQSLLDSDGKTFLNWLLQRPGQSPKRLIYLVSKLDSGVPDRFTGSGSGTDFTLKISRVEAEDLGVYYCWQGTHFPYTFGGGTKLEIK
notes: Mouse hybridoma antibody with a kappa light chain; The controls used were murine IgG2a and an 'isotype-matched' antibody, so IgG2a is implied; It was used as hybridoma supernatant in FACS; also called mAb 1D9; mus-1D9
On to B1, for which the IC50 in test [1] is ~0.004 µg/mL and ~0.02 nM; in test [4] it was 0.04 µg/mL and ~0.2 nM. The binding result in test [2] and in test [3] was “no binding” throughout.

The values above are taken from patent US20040151721A1 (Takeda / Millennium, published 2004).
